This is an account of results in patent publication US5534407.

Series [1] relates to RecA protein (Escherichia coli). Conditions: renaturation t1/2 with about 500 uM ATP; little renaturation without ATP; 10 mM MgCl2, 50 mM NaCl, 37 C.
For series [2], the system named is T4 gene 32 protein (Bacteriophage T4). Conditions: renaturation t1/2; about 1% annealed after 60 min; 10 mM MgCl2, 50 mM NaCl, 37 C.
Series [3] deals with T7 gene 2.5 protein (Bacteriophage T7). Conditions: renaturation t1/2 by agarose gel annealing assay; 10 mM MgCl2, 50 mM NaCl, pH 7.5, 37 C, no ATP; none >30,000 min.

As to “167-nt fragment (primer-extended to XmnI site) plus circular M13 mGP1-2 ssDNA”, the activity worked out at 60 min in series [1], 3000 min in series [2] and 1 min in series [3].
